Assay results from patent US9527913B2, “Humanized pan-HER antibody compositions” (Symphogen A/S, priority 2012, dated 2016).

Legend:
cynomolgus HER2 = assay: Kinetic binding analysis by surface plasmon resonance (ProteOn XPR36, IgG capture); conditions: Cynomolgus antigen
Experimental: (§1) Kinetic binding analysis of the purified humanized variants was performed on a ProteOn™ XPR36 biosensor (BioRad, USA) employing an IgG capture assay as described by Canziani et al. (Anal. Biochem. (2004) 325:301-307) that allows for measurement of antibody affinities of whole IgG molecules against soluble antigen under monovalent conditions. Briefly, approximately 5000 resonance units (RU) of a monoclonal mouse anti-human IgG Fc antibody (GE Healthcare, Denmark) was conjugated to a GLC chip surface (BioRad, USA) according to the manufacturer's instructions, followed by capture of individual antibodies of the invention or a negative control on the anti-Fc sensor surface. […] Next, 250 μl monovalent antigen (Sino Biologicals) was injected at a flow rate of 50 μl/min in serial threefold dilutions from 100 nM stock to generate response curves. The chip surface was regenerated between cycles by stripping the captured antibody/antigen complexes off the surface with a 10-second injection of 3 M MgCl2 (GE Healthcare, Denmark) repeated three times. Finally, binding responses were fitted to a Langmuir 1:1 binding model for calculation of the on-rate (kon or ka), off-rate (koff or kd) and affinity (KD) constants using double referencing.

human HER2 = target: T1, human HER2 (Homo sapiens, UniProt P04626); assay: as above; conditions: Human antigen
T1 construct: against soluble antigen under monovalent conditions; purchased Sino Biologicals
Experimental: as §1

cynomolgus HER3 = assay: as above; conditions: Cynomolgus antigen
Experimental: as §1

human HER3 = target: T2, human HER3 (Homo sapiens, UniProt P21860); assay: as above; conditions: Human antigen
T2 construct: against soluble antigen under monovalent conditions; purchased Sino Biologicals
Experimental: as §1

[1] = system: human or cynomolgus antigen (EGFR, HER2 or HER3); assay: Off-rate ranking of library hits (Octet QK384, Protein G biosensors); type: binding; conditions: expression supernatant, antigen at 200 nM, dissociation 20 min
Experimental: Approximately 100 hits from each library that yielded an OD signal similar to or higher than that of the chimeric parent antibody were subjected to off-rate ranking using an Octet® QK384 instrument (Fortebio, Menlo Park, Calif.). Protein G biosensors (Fortebio) were used for capturing of antibody from 40 μl of expression supernatant followed by incubation with human or cynomolgus antigen at 200 nM. Human antigens were obtained from Sino Biologicals and cynomolgus antigens were produced in-house by transient expression in CHO or HEK293 cells (Koefoed et al. (2011) mAbs, 3:6, 1-12). Subsequently, the biosensors were incubated in PBS and the dissociation of antigen was recorded for 20 min to allow for a reliable determination of the dissociation rates. The responses were globally fitted to a Langmuir 1:1 binding model for calculation of dissociation constants.

[2] = system: EGFR, HER2 and HER3 from humans, cynomolgus monkeys and mice, human and murine HER4; assay: Cross-reactivity ELISA with coated antigens; type: binding, mouse; conditions: OD at 450 nm, 40 nM antibody, compared to chimeric parent
Experimental: Antibody-antigen binding was measured by ELISA with coated antigens. Human antigens were obtained from Sino Biologicals. All other antigens were produced in-house by transient expression in CHO or HEK293 cells. Chimeric and humanized antibodies, as well as an isotype control antibody, were incubated with the coated antigens at different concentrations. After wash, bound antibodies were detected by HRP-(horse radish peroxidase)-conjugated secondary antibodies. The OD signal from 40 nM antibody, measured at 450 nm using an ELISA reader, was scored from negative (−; OD<0.1) to strongly positive (+++; OD>2.5).

[3] = system: A431NS, H358, FaDu, OE19, BT474, MDA-MB-175 VII, MCF-7, N87, HN5, MFE-280 cancer cell lines; assay: Viability assay (WST-1) of humanized variants with partner antibody and of six-antibody mixtures; type: cell-based, human; conditions: two cell lines per variant, 96 hours
Experimental: Each humanized variant was tested in two cell lines and compared to the parental mixture of two chimeric antibodies and to a negative control antibody. […] In addition, a combination of six humanized variants (11294, 11302, 11249, 11145, 10738 and 11052; Humanized Pan-HER) was tested in a number of cell lines and compared to the combination of the six chimeric antibodies (1277, 1565, 4384, 4517, 5038 and 5082; Chimeric Pan-HER). The cell lines used, N87 gastric, FaDu head and neck, A431NS epidermoid, OE19 esophageal, HN5 head and neck, MDA-MB-175 VII breast and MFE-280 endometrial cancer, were selected on the basis of their previously determined dependency on the HER family receptors.
Prior to performing the viability assay the appropriate antibodies and antibody mixtures were diluted to a final total antibody concentration of 100 μg/ml in appropriate media supplemented with 0.5-2% FBS and 1% P/S (penicillin/streptomycin), yielding a final total antibody concentration of 50 μg/ml in the well containing the highest antibody concentration. A threefold serial dilution of the antibodies was then performed in a 384-well plate, followed by addition of relevant numbers of cells to the experimental wells. The MCF-7 cells were also stimulated with 1 nM heregulin beta. The plates were incubated for 4 days in a humidified incubator at 37° C. WST-1 reagent (Roche Applied Science, Mannheim, Germany) was added to the plates and the plates were incubated for 1-3 h at 37° C. Plates were transferred to an orbital plate shaker for one h and the absorbance was measured at 450 and 620 nm (reference wavelength) using an ELISA reader. The percentage of metabolically active cells (MAC) is calculated as a percentage of the untreated control as follows: […]

Row | Kd (cynomolgus HER2) | ka (cynomolgus HER2) | kd (cynomolgus HER2) | ka (human HER2) | kd (human HER2) | ka (cynomolgus HER3) | kd (cynomolgus HER3) | ka (human HER3) | kd (human HER3) | Molecule | KD (estimated) (human HER3; KD could not be determined due to a very slow off-rate) | dissociation rate (off-rate ranking) compared to parent antibody [1] | cross-reactivity pattern with HER family antigens [2] | anti-proliferative effect in combination with partner antibody, compared to mixture of the two chimeric parent antibodies [3]
1 | 3.7 nM | 230000 M⁻¹ s⁻¹ | 0.00086 s⁻¹ | 260000 M⁻¹ s⁻¹ | 0.00029 s⁻¹ | – | – | – | – | antibody 4517: chimeric parent anti-HER2 antibody disclosed in WO 2012/059857; VH SEQ ID NO: 27, light chain SEQ ID NO: 29 (antibody) VH: EVQLVESGGDLVKPGGSLKLSCAASGFTFSSYGMSWVRLTPDKRLEWVATISGGGSYTYYPDSVKGRFTISRDIAKSTLYLQMSSLKSEDTAVYYCARKGNYGNYGKLAYWGQGTSVTVS light: DIQMTQSPASLSVSVGETVTITCRASENIYSNLAWYQQEQGKSPQLLVYAATNLADGVPSRFSGSGSGTQYSLKINSLQSEDFGSYYCQHFWGTPWTFGGGTKLEIKRTVAAPSVFIFPPSDEQLKSGTASVVCLLNNFYPREAKVQWKVDNALQSGNSQESVTEQDSKDSTYSLSSTLTLSKADYEKHKVYACEVTHQGLSSPVTKSFNRGEC | – | – | – | –
2 | – | – | – | – | – | 1.5e+06 M⁻¹ s⁻¹ | 8.7e-05 s⁻¹ | 740000 M⁻¹ s⁻¹ | <2e-06 s⁻¹ | antibody 11006: humanized anti-HER3 antibody from chimeric parent 5082; HC SEQ ID NO: 58, LC SEQ ID NO: 59 (antibody, V domains shown) VH: QVQLQESGPGLVKPSQTLSLTCTVSGYSITSAYYWNWIRQHPGKGVEWMGYIGYSGRNTYNPSLKNRVTISRDTSKNQFSLKLSSVTAADTAVYYCSREGDYGYSDYWGQGTLVTVSS VL: DIQMTQSPSSLSASVGDRVTVTCRASQDTNNYLNWYQQKPGKAVKLLIYYTSRLQSGVPSRFSGSGSGTDFTLTISSLQPEDFATYFCQQSETLPWTFGQGTKVEIK | *KD could not be determined due to a very slow off-rate. Estimated to be in the picomolar range. | improved dissociation rate | binding to the same human and cynomolgus antigen combined with lack of binding to the mouse antigen or to other EGFR family receptors | highly similar anti-proliferative effects
